According to the supplement of paper PMC10567573:

B1: PLAGL1 (parent)
chain: DPNKMAFGCEECGKKYNTMLGYKR

Variants of: B1
Assay: protein stability index of a GFP-peptide fusion (GPS, HEK-293T) (PSI 1-6); higher = more stable
Conditions: c terminus: a fixed tail appended
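Further: lentivirally expressed fusions sorted by FACS into six bins by GFP to DsRed ratio, PSI derived from sequencing read proportions per bin multiplied by bin number.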

Variant | protein stability index
DPNKMAFGCEEMGKKYNTMLGYKR [C12M] | 3.93
DPNKMAFGCEENGKKYNTMLGYKR [C12N] | 4.1
DPNKMAFGCEEPGKKYNTMLGYKR [C12P] | 4.01
DPNKMAFGCEEQGKKYNTMLGYKR [C12Q] | 4.24
DPNKMAFGCEERGKKYNTMLGYKR [C12R] | 4.61
DPNKMAFGCEESGKKYNTMLGYKR [C12S] | 3.52
DPNKMAFGCEETGKKYNTMLGYKR [C12T] | 3.78
DPNKMAFGCEEVGKKYNTMLGYKR [C12V] | 4.43
DPNKMAFGCEEWGKKYNTMLGYKR [C12W] | 2.93
DPNKMAFGCEEYGKKYNTMLGYKR [C12Y] | 3.92
DPNKMAFGCEECAKKYNTMLGYKR [G13A] | 2.33
DPNKMAFGCEECCKKYNTMLGYKR [G13C] | 1.97
DPNKMAFGCEECDKKYNTMLGYKR [G13D] | 2.81
DPNKMAFGCEECEKKYNTMLGYKR [G13E] | 2.63
DPNKMAFGCEECFKKYNTMLGYKR [G13F] | 1.93
DPNKMAFGCEECHKKYNTMLGYKR [G13H] | 2.45
DPNKMAFGCEECIKKYNTMLGYKR [G13I] | 2.49
DPNKMAFGCEECKKKYNTMLGYKR [G13K] | 2.04
DPNKMAFGCEECLKKYNTMLGYKR [G13L] | 3.01
DPNKMAFGCEECMKKYNTMLGYKR [G13M] | 1.82
DPNKMAFGCEECNKKYNTMLGYKR [G13N] | 2.12
DPNKMAFGCEECPKKYNTMLGYKR [G13P] | 3.96
DPNKMAFGCEECQKKYNTMLGYKR [G13Q] | 2.35
DPNKMAFGCEECRKKYNTMLGYKR [G13R] | 2.53

Variant | protein stability index
DPNKMAFGCEECSKKYNTMLGYKR [G13S] | 2.98
DPNKMAFGCEECTKKYNTMLGYKR [G13T] | 2.33
DPNKMAFGCEECVKKYNTMLGYKR [G13V] | 1.39
DPNKMAFGCEECWKKYNTMLGYKR [G13W] | 3.27
DPNKMAFGCEECYKKYNTMLGYKR [G13Y] | 2.32
DPNKMAFGCEECGAKYNTMLGYKR [K14A] | 2.93
DPNKMAFGCEECGDKYNTMLGYKR [K14D] | 2.98
DPNKMAFGCEECGEKYNTMLGYKR [K14E] | 3.44
DPNKMAFGCEECGFKYNTMLGYKR [K14F] | 2.23
DPNKMAFGCEECGGKYNTMLGYKR [K14G] | 2.29
DPNKMAFGCEECGHKYNTMLGYKR [K14H] | 1.99
DPNKMAFGCEECGIKYNTMLGYKR [K14I] | 2.46
DPNKMAFGCEECGLKYNTMLGYKR [K14L] | 1.54
DPNKMAFGCEECGMKYNTMLGYKR [K14M] | 2.56
DPNKMAFGCEECGNKYNTMLGYKR [K14N] | 3.06
DPNKMAFGCEECGPKYNTMLGYKR [K14P] | 2.88
DPNKMAFGCEECGQKYNTMLGYKR [K14Q] | 3.04
DPNKMAFGCEECGRKYNTMLGYKR [K14R] | 1.99
DPNKMAFGCEECGSKYNTMLGYKR [K14S] | 2.39
DPNKMAFGCEECGTKYNTMLGYKR [K14T] | 3.14
DPNKMAFGCEECGVKYNTMLGYKR [K14V] | 2.37
DPNKMAFGCEECGWKYNTMLGYKR [K14W] | 3.05
DPNKMAFGCEECGYKYNTMLGYKR [K14Y] | 1.95
DPNKMAFGCEECGKAYNTMLGYKR [K15A] | 2.73

Variant | protein stability index
DPNKMAFGCEECGKCYNTMLGYKR [K15C] | 2.63
DPNKMAFGCEECGKDYNTMLGYKR [K15D] | 3.12
DPNKMAFGCEECGKEYNTMLGYKR [K15E] | 3.03
DPNKMAFGCEECGKFYNTMLGYKR [K15F] | 1.81
DPNKMAFGCEECGKGYNTMLGYKR [K15G] | 2.3
DPNKMAFGCEECGKHYNTMLGYKR [K15H] | 1.98
DPNKMAFGCEECGKIYNTMLGYKR [K15I] | 1.58
DPNKMAFGCEECGKLYNTMLGYKR [K15L] | 2.19
DPNKMAFGCEECGKMYNTMLGYKR [K15M] | 1.73
DPNKMAFGCEECGKNYNTMLGYKR [K15N] | 2.99
DPNKMAFGCEECGKPYNTMLGYKR [K15P] | 2.81
DPNKMAFGCEECGKQYNTMLGYKR [K15Q] | 3.14
DPNKMAFGCEECGKRYNTMLGYKR [K15R] | 1.52
DPNKMAFGCEECGKSYNTMLGYKR [K15S] | 1.96
DPNKMAFGCEECGKTYNTMLGYKR [K15T] | 2.58
DPNKMAFGCEECGKVYNTMLGYKR [K15V] | 2.27
DPNKMAFGCEECGKWYNTMLGYKR [K15W] | 2.27
DPNKMAFGCEECGKYYNTMLGYKR [K15Y] | 1.71
DPNKMAFGCEECGKKANTMLGYKR [Y16A] | 2.82
DPNKMAFGCEECGKKCNTMLGYKR [Y16C] | 2.58
DPNKMAFGCEECGKKDNTMLGYKR [Y16D] | 2.88
DPNKMAFGCEECGKKENTMLGYKR [Y16E] | 3.2
DPNKMAFGCEECGKKFNTMLGYKR [Y16F] | 2.68
DPNKMAFGCEECGKKGNTMLGYKR [Y16G] | 2.17

Variant | protein stability index
DPNKMAFGCEECGKKHNTMLGYKR [Y16H] | 2.73
DPNKMAFGCEECGKKINTMLGYKR [Y16I] | 2.13
DPNKMAFGCEECGKKKNTMLGYKR [Y16K] | 3.16
DPNKMAFGCEECGKKLNTMLGYKR [Y16L] | 3.25
DPNKMAFGCEECGKKMNTMLGYKR [Y16M] | 2.71
DPNKMAFGCEECGKKNNTMLGYKR [Y16N] | 3.04
DPNKMAFGCEECGKKPNTMLGYKR [Y16P] | 3.07
DPNKMAFGCEECGKKQNTMLGYKR [Y16Q] | 2.44
DPNKMAFGCEECGKKRNTMLGYKR [Y16R] | 3.4
DPNKMAFGCEECGKKSNTMLGYKR [Y16S] | 2.62
DPNKMAFGCEECGKKTNTMLGYKR [Y16T] | 3.51
DPNKMAFGCEECGKKVNTMLGYKR [Y16V] | 2.73
DPNKMAFGCEECGKKWNTMLGYKR [Y16W] | 2.72
DPNKMAFGCEECGKKYATMLGYKR [N17A] | 2.82
DPNKMAFGCEECGKKYCTMLGYKR [N17C] | 2.2
DPNKMAFGCEECGKKYDTMLGYKR [N17D] | 2.33
DPNKMAFGCEECGKKYETMLGYKR [N17E] | 2.31
DPNKMAFGCEECGKKYFTMLGYKR [N17F] | 3.25
DPNKMAFGCEECGKKYGTMLGYKR [N17G] | 1.52
DPNKMAFGCEECGKKYHTMLGYKR [N17H] | 2.91
DPNKMAFGCEECGKKYITMLGYKR [N17I] | 2.44
DPNKMAFGCEECGKKYKTMLGYKR [N17K] | 3.06
